In paper PMC12068740:

Molecular target: Htz1(T46C)-2xFLAG (yeast H2A.Z with a cysteine probe) (yeast)
Assay: cross-linking; VivosX: disulfide cross-linking in living yeast cells with 180 uM 4-DPS for 20 min at 30 C; TCA fixation; non-reducing SDS-PAGE and anti-FLAG immunoblot, bands normalised to H4; WT cells (swc2 and swr1 deletion cells also tested, with fewer ZZ and AZ adducts)

Row | percent of bulk H2A.Z in the H2A-to-H2A.Z cross-linked adduct (WT cells) | percent of bulk H2A.Z in the H2A.Z-to-H2A.Z cross-linked adduct (WT cells) | Substance
1 | 57% |  | 2xV5-Hta1(N39C) (yeast H2A with a cysteine probe) (natural protein)
2 |  | 12% | Htz1(T46C)-2xFLAG (yeast H2A.Z with a cysteine probe) (natural protein)
